Source: patent US11795454B2, “Targeted delivery system” (Cedars-Sinai Medical Center, priority 2009, dated 2023)

B1: HerDox: self-assembled nanoparticle of oligonucleotide duplex, doxorubicin and HerPBK10 (conjugate)
chain: LPPRLKEMKSQESAAGSKLVLRCETSSEYSSLRFKWFKNGNELNRKNKPQNIKIQKKPGKSELRINKASLADSGEYMCKVISKLGNDSASANITIVESNEIITGMPASTEGAYVSSESPIRISVSTEGANTSSSTSTSTTGTSHLVKCAEKEKTFCVNGGECFMVKDLSNPSRYLCKCQPGFTGARCTENVPMKVQNQEKAEELYMRRAAMYEEGPPPSYESVVSAAPVAAALGSPFDAPLDPPFVPPRYLRPTGGRNSIRYSELAPLFDTTRVYLVDNKSTDVASLNYQNDHSNFLTTVIQNNDYSPGEASTQTINLDDRSHWGGDLKTILHTNMPNVNEFMFTNKFKARVMVSRLPTKDNQVELKYEWVEFTLPEGNYSETMTIDLMNNAIVEHYLKVGRQNGVLESDIGVKFDTRNFRLGFDPVTGLVMPGVYTNEAFHPDIILLPGCGVDFTHSRLSNLLGIRKRQPFQEGFRITYDDLEGGNIPALLDVDAYQASLKDDTEQGGGGAGGSNSSGSGAEENSNAAAAAMQPVEDMNDHAIRGDTFATRAEEKRAEAEAAAEAAAPAAQPEVEKPQKKPVIKPLTEDSKKRSYNLISNDSTFTQYRSWYLAYNYGDPQTGIRSWTLLCTPDVTCGSEQVYWSLPDMMQDPVTFRSTRQISNFPVVGAELLPVHSKSFYNDQAVYSQLIRQFTSLTHVFNRFPENQILARPPAPTITTVSENVPALTDHGTLPLRNSIGGVQRVTITDARRRTCPYVYKALGIVSPRVLSSRTFKKKKKKKKKK

Tests used:
[1] = mouse, in vivo
Text: Control (saline-injected) mice were euthanized early due to tumor ulceration, in compliance with IACUC policy. […] FIG. 30E, TUNEL staining and quantification in liver and kidney tissue obtained from treated mice. Micrographs obtained at 20× magnification (left set of panels) show fluorescently-stained nuclei in apoptotic cells (delineated areas are enlarged in micrographs to the right). Graph summarizes relative fluorescence intensities of each treated tissue (N>200 fields per treatment).
Fixed, sectioned tissues were processed by incubation in a dry 60° C. oven for 1 h followed by sequential submersion in xylenes for 4 min×5, then hydration in 100%, 95%, 90%, 80%, 70% ethanol for 3 min, 2 times each and final submersion in water. After Proteinase K (20 ug/ml in 10 mM Tris pH 7.8) incubation and rinsing in PBS, sections were treated for TUNEL staining following the manufacturer's instructions (XXX) and assessed by confocal fluorescence imaging. Here, 10 TUNEL images at different locations per tissue were acquired using a Leica confocal SPE microscope (20×, ex: 488 nm, and em: 530 nm). Central regions of each tissue were imaged to avoid fixation artifacts. Nuclear fluorescence intensities, reflective of DNA fragmentation, were measured and averaged using ImageJ.

MDA-MB-231 = assay: HerDox cytotoxicity dose curves (metabolic assay, crystal violet); format: cell-based, human; conditions: MDA-MB-231, low HER2; day 3; read-out: CD50 (the source's name)
Method: (§1) FIG. 21 depicts, in accordance with an embodiment herein, toxicity to cells displaying differential HER2. Cytotoxicities from a range of HerDox doses were assessed on each cell line by metabolic assay and confirmed by crystal violet stain. CD50 values (shown in log scale) were determined by non-linear regression analyses of HerDox dose curves using a scientific graphing program (GraphPad Prism) and confirmed with an on-line calculator (Chang bioscience). The relative HER2 level of each cell line is shown next to each CD50 value.
(§2) All treatments, N=3. FIG. 27A. Comparing cytotoxicity to HER2+ (MDAMB-435) and HER2− (MDA-MB-231) cells in separate cultures. Left, Relative survival (as % of untreated cells) on day 3 of treatment. Right, Micrograph of live cells after treatment. Control, mock (HBS) treatment. FIG. 27B, Receptor specificity of cytotoxicity. […] FIG. 27C, Toxicity to cells displaying differential HER2. Cytotoxicities from HerDox titrations were assessed on each cell line by metabolic assay and confirmed by crystal violet stain on day 3 of treatment. CD50 values (shown in log scale) were determined by non-linear regression analyses of HerDox killing curves using GraphPad Prism. The relative HER2 level of each cell line is shown next to each CD50 value. […] Survival was determined by calculating the relative doubling time (DT) of experimental (exp) cells normalized by mock-treated (con) cells based on crystal violet stains (total cells) and GFP fluorescence (MDAMB-231 cells), and applying DTMDA-MB-435=DTTotal-DTMDA-MB-231 as previously described. […] U251 cells were treated once with the indicated HerDox (and competitive inhibitor where indicated) or Dox doses and measured for cell survival at the indicated time points after treatment. * P<0.05 compared to Mock. […]
(§3) To assess the contribution of HER2 to therapeutic efficacy in vitro, we determined HerDox CD50 on selected human tumor lines displaying HER2 at relatively high (SKBR3), moderate (MDA-MB-435, MDAMB-453, HeLa), and low to undetectable (MDA-MB-231) levels, according to our receptor subunit profiling of a cell line panel.

SKBR3 = assay: as above; format: cell-based, human; conditions: SKBR3, high HER2; day 3; read-out: CD50 (the source's name)
Method: as §1, §2, §3

[2] = tested on: MDA-MB-435, MDAMB-453, HeLa; assay: as above; format: cell-based, human; conditions: intermediate HER2 levels; day 3; read-out: CD50 (the source's name)
Method: as §1, §2, §3

[3] = HerDox stability in storage, ultrafiltration; format: physicochemical; conditions: 4° C., RT, or 37° C. over a 12 day period
Method: FIG. 34A, HerDox stability in different storage conditions. HerDox was incubated at indicated times and temperatures was applied to a 10K mwco ultrafiltration membrane every other day, and retentate and filtrate A480 measured to determine relative Dox retention or release from complexes, respectively. […] FIG. 34B, Assessing stability in serum-containing media by ultrafiltration. HerDox immobilized on Ni-NTA beads (Qiagen Inc., Valencia. CA, USA) by incubation on ice for 2 h with agitation followed by free HerDox removal via bead pelleting/washing in HBS received 10% fetal bovine serum (FBS), to mimic cell culture conditions, and incubated at 37° C. with agitation for the indicated time-points. At each time-point, samples were pelleted and mean A480±SD (N=3) of supernatants (Released) and bead eluates (Retained) were measured. […] Relative Dox release or retention in serum is expressed as normalized to control (corresponding serum-lacking sample). […] Dox fluorescence (top panel) was visualized by UV excitation. […] Dox (1.6 nmoles) was added to serum coated wells and incubated for 30 min at 37° C. with agitation before supernatants were removed and the wells washed once with HBS before fluorescence spectra were measured for pre-incubation sample (Input), supernatant (Free) and wells (Serum-bound). Fluorescence spectra were obtained at Ex 485 nm/Em 520-750 nm with a 515 nm cutoff filter. […]

| Molecule | apoptosis in the kidney (TUNEL) [1] | apoptosis in the liver (TUNEL) [1] | IC50 (MDA-MB-231) [nM] | IC50 (SKBR3) [nM] | IC50 [2] [nM] | Dox release in storage [3] |
| --- | --- | --- | --- | --- | --- | --- |
| COc1cccc2c1C(=O)c1c(O)c3c(c(O)c1C2=O)C[C@@](O)(C(=O)CO)C[C@@H]3O[C@H]1C[C@H](N)[C@H](O)[C@H](C)O1.Cl [Dox, Doxorubicin-HCl, reference compound] | Neither Dox nor HerDox showed substantial apoptosis | marked apoptosis | – | – | – | – |
| B1 | – | – | > 8000 | 56 ± 17 | 300 to 800 | no detectable Dox release |
